Experimental data: patent US20230312742A1 (Y MABS THERAPEUTICS, published 2023)

What was measured:
[1] = biological target: T1, human CD38 antigen (recombinant human CD38 protein) (human, UniProt P28907 43-300, limits assumed); assay: SPR, antibody captured on Protein-L chip, human CD38 in solution; humanized 8DC3
[2] = biological target: T2, CD38 on CD38(+) cancer cells (RPMI8226, Raji, Daudi) (UniProt P28907 1-300, limits assumed); assay: flow cytometry on Raji cells, detection with an anti-his tag antibody
T2 construct: whole, on cells; Endogenous CD38 on tumour cell lines; also called CD38(+) tumor cells; CD38(+) Raji cells

[3] = biological target: T1, human CD38 antigen (recombinant human …); assay: SPR, construct captured on immobilised protein-L (HC30M chip), human CD38 antigen flown over
[4] = biological target: T2, CD38 on CD38(+) cancer cells (RPMI8226, …); assay: flow cytometry on RPMI 8226 cells, detection with an anti-his tag antibody
[5] = biological target: T1, human CD38 antigen (recombinant human …); assay: SPR, His-tagged SADA captured on NiHC200M chip, recombinant human CD38 in solution; average
[6] = biological target: T1, human CD38 antigen (recombinant human …); assay: SPR, His-tagged SADA construct captured on a NiHC200M chip, recombinant human CD38 protein injected
[7] = biological target: T1, human CD38 antigen (recombinant human …); assay: SPR, IgG captured on anti-human Fc, human CD38 in solution;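 note: humanized IgG captured on an amine-coupled anti-human Fc HC30M chip, with human CD38 injected as a dilution series from 1000 nM downward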
[8] = biological target: T2, CD38 on CD38(+) cancer cells (RPMI8226, …); assay: flow cytometry on RPMI8226 cells
[9] = biological target: T1, human CD38 antigen (recombinant human …); assay: SPR, BsAb (1 µg/ml) captured on anti-human Fc chip, human CD38 in solution; average, N=6
[10] = biological target: T1, human CD38 antigen (recombinant human …); assay: SPR, His-tagged SADA construct captured on a NiHC200M chip, recombinant human CD38 protein injected; remark: listed apart in the source
[11] = biological target: T2, CD38 on CD38(+) cancer cells (RPMI8226, …); assay: flow cytometry on Daudi cells, goat anti-human IgG fluorochrome-conjugated secondary antibody
[12] = biological target: T1, human CD38 antigen (recombinant human …); assay: SPR, antibody captured on Protein-L chip, human CD38 in solution; murine antibody, not named

B1: 8DC-3 (anti-CD38 scFv-(G4S)4-huC825 anti DOTA scFv-linker-P53-linker-His tag) (bispecific antibody)
chain: QVQLQESGPGLVKPSETLSLTCTVSGFSLTSYGVHWVRQPPGKGLEWIGVMWRGGSTDYNAAFKSRVTISKDNSKNQVSLKLSSVTAADTAVYYCAKSMITTGFVMDSWGQGTLVTVSSGGGGSGGGGSGGGGSGGGGSGGGGSGGGGSDIQLTQSPSSLSASVGDRVTITCKASEDIYNRLTWYQQKPGKAPKLLISGATSLETGVPSRFSGSGSGKDYTFTISSLQPEDFATYYCQQYWSNPYTFGQGTKLEIKGGGGSGGGGSGGGGSGGGGSHVQLVESGGGLVQPGGSLRLSCAASGFSLTDYGVHWVRQAPGKGLEWLGVIWSGGGTAYNTALISRFTISRDNSKNTLYLQMNSLRAEDTAVYYCARRGSYPYNYFDAWGCGTLVTVSSGGGGSGGGGSGGGGSGGGGSGGGGSGGGGSQAVVTQEPSLTVSPGGTVTLTCGSSTGAVTASNYANWVQQKPGQCPRGLIGGHNNRPPGVPARFSGSLLGGKAALTLLGAQPEDEAEYYCALWYSDHWVIGGGTKLTVLGTPLGDTTHTSGKPLDGEYFTLQIRGRERFEMFRELNEALELKDAQAGKEPGGSGGAPHHHHHH
notes: SADA construct with VL5 and VH8
[1]
  Kd: 31 nM
[2]
  EC50 (read off the curve): ~0.06 µg/mL
[3]
  koff: 0.00085 s⁻¹
  kon: 27000 M⁻¹ s⁻¹

B2: 8DC-4 (anti-CD38 scFv-(G4S)4-huC825 anti DOTA scFv-linker-P53-linker-His tag) (bispecific antibody)
chain: QVQLQESGPGLVKPSETLSLTCTVSGFSLTSYGVHWVRQPPGKCLEWIGVMWRGGSTDYNAAFKSRVTISKDNSKNQVSLKLSSVTAADTAVYYCAKSMITTGFVMDSWGQGTLVTVSSGGGGSGGGGSGGGGSGGGGSGGGGSGGGGSDIQLTQSPSSLSASVGDRVTITCKASEDIYNRLTWYQQKPGKAPKLLISGATSLETGVPSRFSGSGSGKDYTFTISSLQPEDFATYYCQQYWSNPYTFGCGTKLEIKGGGGSGGGGSGGGGSGGGGSHVQLVESGGGLVQPGGSLRLSCAASGFSLTDYGVHWVRQAPGKGLEWLGVIWSGGGTAYNTALISRFTISRDNSKNTLYLQMNSLRAEDTAVYYCARRGSYPYNYFDAWGCGTLVTVSSGGGGSGGGGSGGGGSGGGGSGGGGSGGGGSQAVVTQEPSLTVSPGGTVTLTCGSSTGAVTASNYANWVQQKPGQCPRGLIGGHNNRPPGVPARFSGSLLGGKAALTLLGAQPEDEAEYYCALWYSDHWVIGGGTKLTVLGTPLGDTTHTSGKPLDGEYFTLQIRGRERFEMFRELNEALELKDAQAGKEPGGSGGAPHHHHHH
notes: SADA construct with VL8 and VH11 (extra disulfide in the anti-CD38 scFv), VH-VL order
[2]
  EC50 (read off the curve): ~0.05 µg/mL
[4]
  EC50 (read off the curve): ~0.07 µg/mL
[5]
  Kd: 0.28 nM
  kon: 89000 M⁻¹ s⁻¹
[6]
  Kd: 0.532 nM

B3: L4H5 (antibody, V domains shown)
VH: QVQLQESGPGLVKPSETLSLTCTVSGFSLTSYGVHWIRQPPGKGLEWIGVMWRGGSTDYNPSLKSRVTISVDTSKNQFSFKLSSVTAADTAIYYCAKSMITTGFVMDSWGQGTLVTVSS
VL: DIQMTQSPSSLSASVGDRVTITCRASEDIYNRLTWYQQKPGKAPKLLLYGATSLETGVPSRFSGSGSGKDYTLTISSLQPEDFATYYCQQYWSNPYTFGGGTKVEIK
notes: Humanized AT13/5 IgG, VL4 + VH5
[7]
  Kd: 320 nM

B4: L4H7 (antibody, V domains shown)
VH: QVQLKQSGPGLVKPSETLSLTCTVSGFSLTSYGVHWIRQPPGKGLEWIGVMWRGGSTNYNPSLKSRLTISVDTSKNQFSLKLSSVTAADTAVYYCAKSMITTGFVMDSWGQGTLVTVSS
VL: DIQMTQSPSSLSASVGDRVTITCRASEDIYNRLTWYQQKPGKAPKLLLYGATSLETGVPSRFSGSGSGKDYTLTISSLQPEDFATYYCQQYWSNPYTFGGGTKVEIK
notes: Humanized AT13/5 IgG, VL4 + VH7
[7]
  Kd: 870 nM

B5: L4H6 (antibody, V domains shown)
VH: QVQLQESGPGLVKPSETLSLTCTVSGFSLTSYGVHWIRQPPGKGLEWLGVMWRGGSTNYNPSLKSRVTISKDTSKNQFSLKLSSVTAADTAVYYCAKSMITTGFVMDSWGQGTLVTVSS
VL: DIQMTQSPSSLSASVGDRVTITCRASEDIYNRLTWYQQKPGKAPKLLLYGATSLETGVPSRFSGSGSGKDYTLTISSLQPEDFATYYCQQYWSNPYTFGGGTKVEIK
notes: Humanized AT13/5 IgG, VL4 + VH6
[7]
  Kd: 580 nM

B6: 8DC1OK (CD3xCD38 bispecific antibody, IgG-L-scFv format, chimeric AT13/5 VL and VH) (bispecific antibody)
light: DIQLTQSPSSFSVSLGDRVTITCKASEDIYNRLTWYQQKPGNAPRLLISGATSLETGVPSRFSGSGSGKDYTLSITSLQTEDVATYYCQQYWSNPYTFGGGTKLEIRRTVAAPSVFIFPPSDEQLKSGTASVVCLLNNFYPREAKVQWKVDNALQSGNSQESVTEQDSKDSTYSLSSTLTLSKADYEKHKVYACEVTHQGLSSPVTKSFNRGECGGGGSGGGGSGGGGSGGGGSQVQLVQSGGGVVQPGRSLRLSCKASGYTFTRYTMHWVRQAPGKCLEWIGYINPSRGYTNYNQKFKDRFTISRDNSKNTAFLQMDSLRPEDTGVYFCARYYDDHYSLDYWGQGTPVTVSSGGGGSGGGGSGGGGSGGGGSGGGGSGGGGSDIQMTQSPSSLSASVGDRVTITCSASSSVSYMNWYQQTPGKAPKRWIYDTSKLASGVPSRFSGSGSGTDYTFTISSLQPEDIATYYCQQWSSNPFTFGCGTKLQITR
heavy: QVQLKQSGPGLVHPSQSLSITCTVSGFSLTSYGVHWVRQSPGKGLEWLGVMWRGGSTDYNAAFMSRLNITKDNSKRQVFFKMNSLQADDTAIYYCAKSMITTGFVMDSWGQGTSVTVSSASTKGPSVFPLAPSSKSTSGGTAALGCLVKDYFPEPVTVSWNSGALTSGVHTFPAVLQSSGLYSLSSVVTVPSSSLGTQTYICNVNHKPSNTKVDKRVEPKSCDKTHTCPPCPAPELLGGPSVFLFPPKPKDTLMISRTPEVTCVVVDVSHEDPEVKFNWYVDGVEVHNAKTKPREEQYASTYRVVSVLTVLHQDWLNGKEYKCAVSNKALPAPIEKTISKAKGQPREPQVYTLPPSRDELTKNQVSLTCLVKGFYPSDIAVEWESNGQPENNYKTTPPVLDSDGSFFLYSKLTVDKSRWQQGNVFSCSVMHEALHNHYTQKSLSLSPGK
notes: Light chain: anti-CD38 VL-CL-(G4S)4-huOKT3 VH-(G4S)6-huOKT3 VL; also called the chimeric antibody 8DC1OK
[8]
  EC50: 0.076 µg/mL
[9]
  Kd: 1.6 nM
  koff: 0.00076 s⁻¹
  kon: 470000 M⁻¹ s⁻¹

B7: 8DC-5 (anti-CD38 scFv-(G4S)4-huC825 anti DOTA scFv-linker-P53-linker-His tag) (bispecific antibody)
chain: DIQLTQSPSSLSASVGDRVTITCKASEDIYNRLTWYQQKPGKAPKLLISGATSLETGVPSRFSGSGSGKDYTFTISSLQPEDFATYYCQQYWSNPYTFGCGTKLEIKGGGGSGGGGSGGGGSGGGGSGGGGSGGGGSQVQLQESGPGLVKPSETLSLTCTVSGFSLTSYGVHWVRQPPGKCLEWIGVMWRGGSTDYNAAFKSRVTISKDNSKNQVSLKLSSVTAADTAVYYCAKSMITTGFVMDSWGQGTLVTVSSGGGGSGGGGSGGGGSGGGGSHVQLVESGGGLVQPGGSLRLSCAASGFSLTDYGVHWVRQAPGKGLEWLGVIWSGGGTAYNTALISRFTISRDNSKNTLYLQMNSLRAEDTAVYYCARRGSYPYNYFDAWGCGTLVTVSSGGGGSGGGGSGGGGSGGGGSGGGGSGGGGSQAVVTQEPSLTVSPGGTVTLTCGSSTGAVTASNYANWVQQKPGQCPRGLIGGHNNRPPGVPARFSGSLLGGKAALTLLGAQPEDEAEYYCALWYSDHWVIGGGTKLTVLGTPLGDTTHTSGKPLDGEYFTLQIRGRERFEMFRELNEALELKDAQAGKEPGGSGGAPHHHHHH
notes: SADA construct with VL8 and VH11 (extra disulfide in the anti-CD38 scFv), VL-VH order
[2]
  EC50 (read off the curve): ~0.07 µg/mL
[4]
  EC50 (read off the curve): ~0.05 µg/mL
[5]
  Kd: 0.17 nM
  kon: 96000 M⁻¹ s⁻¹
[10]
  Kd: 0.214 nM

B8: 8DC3OK (CD3xCD38 bispecific antibody, IgG-L-scFv format, humanized VL5 and VH8) (bispecific antibody)
light: DIQLTQSPSSLSASVGDRVTITCKASEDIYNRLTWYQQKPGKAPKLLISGATSLETGVPSRFSGSGSGKDYTFTISSLQPEDFATYYCQQYWSNPYTFGQGTKLEIKRTVAAPSVFIFPPSDEQLKSGTASVVCLLNNFYPREAKVQWKVDNALQSGNSQESVTEQDSKDSTYSLSSTLTLSKADYEKHKVYACEVTHQGLSSPVTKSFNRGECGGGGSGGGGSGGGGSGGGGSQVQLVQSGGGVVQPGRSLRLSCKASGYTFTRYTMHWVRQAPGKCLEWIGYINPSRGYTNYNQKFKDRFTISRDNSKNTAFLQMDSLRPEDTGVYFCARYYDDHYSLDYWGQGTPVTVSSGGGGSGGGGSGGGGSGGGGSGGGGSGGGGSDIQMTQSPSSLSASVGDRVTITCSASSSVSYMNWYQQTPGKAPKRWIYDTSKLASGVPSRFSGSGSGTDYTFTISSLQPEDIATYYCQQWSSNPFTFGCGTKLQITR
heavy: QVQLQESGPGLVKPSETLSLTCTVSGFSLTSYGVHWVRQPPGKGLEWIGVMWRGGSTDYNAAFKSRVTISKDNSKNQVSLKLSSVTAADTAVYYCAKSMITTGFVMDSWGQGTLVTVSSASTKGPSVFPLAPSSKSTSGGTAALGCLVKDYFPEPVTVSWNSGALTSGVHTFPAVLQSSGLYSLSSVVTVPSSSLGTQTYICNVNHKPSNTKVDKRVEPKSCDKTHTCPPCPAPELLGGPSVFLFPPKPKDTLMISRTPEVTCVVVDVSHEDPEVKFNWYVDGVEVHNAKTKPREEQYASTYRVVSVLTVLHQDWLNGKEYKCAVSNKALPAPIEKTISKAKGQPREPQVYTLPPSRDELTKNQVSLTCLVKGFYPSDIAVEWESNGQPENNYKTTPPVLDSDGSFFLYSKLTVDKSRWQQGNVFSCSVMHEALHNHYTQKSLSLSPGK
notes: Light chain: anti-CD38 VL-CL-(G4S)4-huOKT3 VH-(G4S)6-huOKT3 VL
[8]
  EC50: 0.167 µg/mL
  fold weaker EC50 than the chimeric antibody 8DC1OK: ~2 fold
[9]
  Kd: 8.8 nM
  koff: 0.0018 s⁻¹
  kon: 210000 M⁻¹ s⁻¹
[11]
  EC50 (read off the curve): ~0.1 µg/mL

B9: Chimeric (chimeric AT13/5 anti-CD38 IgG) (antibody, V domains shown)
VH: QVQLKQSGPGLVHPSQSLSITCTVSGFSLTSYGVHWVRQSPGKGLEWLGVMWRGGSTDYNAAFMSRLNITKDNSKRQVFFKMNSLQADDTAIYYCAKSMITTGFVMDSWGQGTSVTVSS
VL: DIQLTQSPSSFSVSLGDRVTITCKASEDIYNRLTWYQQKPGNAPRLLISGATSLETGVPSRFSGSGSGKDYTLSITSLQTEDVATYYCQQYWSNPYTFGGGTKLEIR
notes: IgG format, captured on anti-human Fc; chimeric VL + chimeric VH (murine AT13/5 variable regions)
[7]
  Kd: 2.8 nM

B10: 8DC-1 (anti-CD38 scFv-(G4S)4-huC825 anti DOTA scFv-linker-P53-linker-His tag) (bispecific antibody)
chain: QVQLKQSGPGLVHPSQSLSITCTVSGFSLTSYGVHWVRQSPGKGLEWLGVMWRGGSTDYNAAFMSRLNITKDNSKRQVFFKMNSLQADDTAIYYCAKSMITTGFVMDSWGQGTSVTVSSGGGGSGGGGSGGGGSGGGGSGGGGSGGGGSDIQLTQSPSSFSVSLGDRVTITCKASEDIYNRLTWYQQKPGNAPRLLISGATSLETGVPSRFSGSGSGKDYTLSITSLQTEDVATYYCQQYWSNPYTFGGGTKLEIRGGGGSGGGGSGGGGSGGGGSHVQLVESGGGLVQPGGSLRLSCAASGFSLTDYGVHWVRQAPGKGLEWLGVIWSGGGTAYNTALISRFTISRDNSKNTLYLQMNSLRAEDTAVYYCARRGSYPYNYFDAWGCGTLVTVSSGGGGSGGGGSGGGGSGGGGSGGGGSGGGGSQAVVTQEPSLTVSPGGTVTLTCGSSTGAVTASNYANWVQQKPGQCPRGLIGGHNNRPPGVPARFSGSLLGGKAALTLLGAQPEDEAEYYCALWYSDHWVIGGGTKLTVLGTPLGDTTHTSGKPLDGEYFTLQIRGRERFEMFRELNEALELKDAQAGKEPGGSGGAPHHHHHH
notes: SADA construct with the murine AT13/5 VH and VL; also called the murine antibody
[2]
  EC50 (read off the curve): ~0.05 µg/mL
[4]
  EC50 (read off the curve): ~0.06 µg/mL
[12]
  Kd: 7.4 nM
[3]
  koff: 0.0012 s⁻¹
  kon: 160000 M⁻¹ s⁻¹
